Reference: paper PMC10611751

target: Ankyrin-G ANK repeats 8-24; experiment: ITC; E-cadherin proteins in the syringe (e.g. 200 μM Trx-E-cadherin) titrated into AnkG in the cell (e.g. 20 μM Trx-AnkG R1-24); 25 °C; 50 mM Tris, 100 mM NaCl, 1 mM EDTA, 1 mM DTT, pH 7.8; one-site binding model

Sequence of E-cadherin C-terminal domain (residues 734-884) (P09803 734-884): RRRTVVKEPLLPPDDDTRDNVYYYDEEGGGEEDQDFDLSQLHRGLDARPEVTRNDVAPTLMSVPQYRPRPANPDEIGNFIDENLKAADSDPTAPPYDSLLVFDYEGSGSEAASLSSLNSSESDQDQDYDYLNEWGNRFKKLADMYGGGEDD
Sequence of E-cadherin 828-869 (containing both site-2 and site-3) (P09803 828-869): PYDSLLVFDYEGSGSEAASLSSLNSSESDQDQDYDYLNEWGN
Sequence of E-cadherin 751-775 (site-1) (P09803 751-775): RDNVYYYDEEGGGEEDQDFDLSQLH

Row | Kd | Substance
1 | 1300 nM | E-cadherin 751-775 (site-1) (from UniProt P09803 751-775) (domain or fragment)
2 | 2500 nM | E-cadherin 828-869 (containing both site-2 and site-3) (from UniProt P09803 828-869) (domain or fragment)
3 | 1500 nM | E-cadherin C-terminal domain (residues 734-884) (from UniProt P09803 734-884) (domain or fragment)
